# Reference: patent publication US20200283847, “TEST KIT FOR DETECTING CONCENTRATION OF CARDIOVASCULAR DISEASE-RELATED BIOMARKER AND CONCENTRATION DETECTION METHOD FOR DETECTING CONCENTRATION OF CARDIOVASCULAR DISEASE-RELATED BIOMARKER” (National Tsing Hua University, published 2020)
# B1: N20a (ssDNA)
# DNA: GGCAGGAAGACAAACAGGTCGTAGTGGAAACTGTCCACCGTAGACCGGTTATCTAGTGGTCTGTGGTGCTGT
# B2: Tn2 (ssDNA)
# DNA: GGCAGGAAGACAAACACCCAACCGAGGATGCAACGCTTGTTGTCATACTGTGATGTTGGTCTGTGGTGCTGT
# B3: F03s (ssDNA)
# DNA: GGCAGGAAGACAAACAGCACCGGGTCCGAAACAGGCTTAGGTATGATCACAGCTCATGGTCTGTGGTGCTGT
# B4: cTni3 (ssDNA)
# DNA: GGCAGGAAGACAAACAGGGGTACTTAGCATAGGAGTTTTGTTCTGTCGCACCTCGTTGGTCTGTGGTGCTGT
# B5: cTni6 (ssDNA)
# DNA: GGCAGGAAGACAAACACGGGGCGGCCGAAACAATGCGTTTCGGACCCAGCAACTCGTGGTCTGTGGTGCTGT
# Tests used:
# [1] = biological target: T1, NT-proBNP (N-terminal pro-brain natriuretic peptide) (UniProt P16860 P16860:27-102); assay: SPR
# Experimental: (§1) Firstly, the binding affinities of the first aptamer, the second aptamer, and the third aptamer contained in the test kit for detecting the concentration of the cardiovascular disease-related biomarker of the present disclosure are tested. The surface plasmon resonance (SPR) method is used in the binding affinity test to measure the signal changes and calculate the dissociation constant (Kd) of the first aptamer, the second aptamer and the third aptamer against their respective target proteins. Alternatively, a primary antibody against the target protein and secondary antibody conjugated with an enzyme is used in test. The binding affinities of the first aptamer, the second aptamer, and the third aptamer against their respective target proteins are measured by detecting the intensities of luminescence.
# [2] = biological target: T2, hcTnI (human cardiac troponin I) (Homo sapiens, UniProt P19429 P19429:2-210); assay: pulldown; protein-coated magnetic beads, qPCR
# Description: (§2) In the specificity test, the single-stranded DNA of the first aptamer, the second aptamer and the third aptamer are synthesized first. The magnetic beads coated with the target protein or the non-target protein are mixed with the first aptamer, the second aptamer or the third aptamer, and then the magnetic beads are captured by the magnet and the aptamers which are not bound to the magnetic beads are washed away. Then, the magnetic beads are heated to denature the proteins on the magnetic beads for releasing the bound aptamers into the supernatant. Quantitative PCR is performed using the supernatant to analyze the number of residual aptamers, and compared with each other to test the specificity of the first aptamer, the second aptamer, and the third aptamer. In theory, a specific aptamer should only bind to its corresponding target protein, but not to a non-corresponding protein. The aptamers tested in the example are the first aptamer N20a, the second aptamer Tn2, and the third aptamer F03s.
# (§3) Please refer to FIGS. 5A, 5B, 5C and 5D, which show specificity analysis results of a test kit for detecting the concentration of the cardiovascular disease-related biomarker according to one embodiment of the present disclosure. […] TT represents the hcTnI with the second aptamer Tn2, NT represents the NT-proBNP protein with the second aptamer Tn2, FT represents the fibrinogen protein with the second aptamer Tn2, and BT represents the BSA protein with the second aptamer Tn2. FF represents the fibrinogen protein with the third aptamer F03s, NF represents the NT-proBNP with the third aptamer F03s, TF represents the hcTnI with the third aptamer F03s, and BF represents the BSA protein with the third aptamer F03s.
# fibrinogen [3] = biological target: T3, fibrinogen (UniProt P02671-2;P02675;P02679 P02671-2:20-644,P02675:31-491,P02679:27-453); assay: pulldown; protein-coated magnetic beads, qPCR; details: chain copies: 2
# Description: as §2, §3
# [4] = biological target: T4, BSA (bovine serum albumin) (Bos taurus, UniProt P02769 P02769:25-607); assay: pulldown; protein-coated magnetic beads, qPCR
# Description: as §2, §3
# [5] = biological target: T2, hcTnI (human cardiac troponin I); assay: SPR
# Experimental: as §1
# [6] = biological target: T1, NT-proBNP (N-terminal pro-brain …); assay: pulldown; protein-coated magnetic beads, qPCR; also no dose-dependent signal in FIG. 7B
# Experimental: as §2, with “The” for “In the specificity test, the single-stranded DNA of the first aptamer, the second aptamer and the third aptamer are synthesized first. The”
# as §3
# fibrinogen [7] = biological target: T3, fibrinogen; assay: as above; details: chain copies: 2
# Experimental: as §2, with “The” for “In the specificity test, the single-stranded DNA of the first aptamer, the second aptamer and the third aptamer are synthesized first. The”
# as §3
# [8] = biological target: T4, BSA (bovine serum albumin); assay: as above
# Experimental: as §2, with “The” for “In the specificity test, the single-stranded DNA of the first aptamer, the second aptamer and the third aptamer are synthesized first. The”
# as §3
# fibrinogen [9] = biological target: T3, fibrinogen; assay: SPR; details: chain copies: 2
# Experimental: as §1
# [10] = biological target: T1, NT-proBNP (N-terminal pro-brain …); assay: pulldown; protein-coated magnetic beads, qPCR
# Description: as §2, §3
# [11] = biological target: T2, hcTnI (human cardiac troponin I); assay: antibody luminescence assay
# Experimental: as §1
# The curves of binding affinity curve are plotted with luminescence intensity of the first aptamer, the second aptamer or the third aptamer with its target protein. The first aptamer, the second aptamer or the third aptamer is bound to the target protein. And then the aptamer-protein complex is incubated with antibodies against target proteins and further with secondary antibodies conjugated with the enzyme, which could produce luminescence when providing substrates. The signal of luminescence of the first aptamer, the second aptamer or the third aptamer is detected. […]
# T1 sequence (P16860 27-102, one chain of several): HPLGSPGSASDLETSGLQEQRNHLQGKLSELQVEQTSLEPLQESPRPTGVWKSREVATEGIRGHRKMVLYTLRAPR
# T4 sequence (P02769 25-607, one chain of several): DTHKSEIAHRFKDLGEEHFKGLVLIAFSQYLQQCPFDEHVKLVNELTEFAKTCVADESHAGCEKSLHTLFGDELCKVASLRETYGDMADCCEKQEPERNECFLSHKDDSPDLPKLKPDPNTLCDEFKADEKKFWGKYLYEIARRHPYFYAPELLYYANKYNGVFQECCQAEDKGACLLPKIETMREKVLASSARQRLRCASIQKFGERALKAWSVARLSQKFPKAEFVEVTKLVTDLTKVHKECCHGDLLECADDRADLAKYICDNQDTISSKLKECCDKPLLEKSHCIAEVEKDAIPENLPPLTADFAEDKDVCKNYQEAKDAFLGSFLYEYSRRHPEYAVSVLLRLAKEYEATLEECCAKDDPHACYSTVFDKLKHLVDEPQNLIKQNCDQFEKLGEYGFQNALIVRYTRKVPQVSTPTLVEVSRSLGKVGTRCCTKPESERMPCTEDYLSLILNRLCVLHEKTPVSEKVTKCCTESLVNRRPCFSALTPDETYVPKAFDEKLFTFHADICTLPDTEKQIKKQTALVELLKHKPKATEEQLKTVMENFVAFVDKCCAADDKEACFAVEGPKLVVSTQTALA
# T2 sequence (P19429 2-210, one chain of several): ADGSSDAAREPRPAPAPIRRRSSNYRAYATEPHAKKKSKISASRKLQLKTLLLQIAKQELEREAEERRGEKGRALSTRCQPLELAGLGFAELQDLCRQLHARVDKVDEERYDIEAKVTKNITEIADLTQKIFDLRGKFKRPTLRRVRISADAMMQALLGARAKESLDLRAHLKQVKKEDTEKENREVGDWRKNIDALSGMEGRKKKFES
# T3 sequence (P02671 other isoform, or with tags, fused parts or gaps, chain 1 of 3): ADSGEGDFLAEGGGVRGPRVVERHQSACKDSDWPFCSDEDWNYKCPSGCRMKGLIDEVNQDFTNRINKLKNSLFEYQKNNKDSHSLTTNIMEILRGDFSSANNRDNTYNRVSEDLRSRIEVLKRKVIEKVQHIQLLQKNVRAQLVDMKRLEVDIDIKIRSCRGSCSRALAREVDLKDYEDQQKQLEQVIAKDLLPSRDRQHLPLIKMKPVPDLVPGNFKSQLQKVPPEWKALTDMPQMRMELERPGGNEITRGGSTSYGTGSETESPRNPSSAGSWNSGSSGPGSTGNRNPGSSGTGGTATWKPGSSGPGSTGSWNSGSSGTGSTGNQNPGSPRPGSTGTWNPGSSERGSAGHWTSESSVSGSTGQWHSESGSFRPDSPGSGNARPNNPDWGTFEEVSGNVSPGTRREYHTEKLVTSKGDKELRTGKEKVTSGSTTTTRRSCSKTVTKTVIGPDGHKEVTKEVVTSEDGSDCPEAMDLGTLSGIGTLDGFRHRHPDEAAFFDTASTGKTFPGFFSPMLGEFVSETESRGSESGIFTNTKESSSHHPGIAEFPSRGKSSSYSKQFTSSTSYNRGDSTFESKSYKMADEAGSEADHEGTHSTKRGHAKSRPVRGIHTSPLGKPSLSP
# T3 sequence (P02675 31-491, chain 2 of 3): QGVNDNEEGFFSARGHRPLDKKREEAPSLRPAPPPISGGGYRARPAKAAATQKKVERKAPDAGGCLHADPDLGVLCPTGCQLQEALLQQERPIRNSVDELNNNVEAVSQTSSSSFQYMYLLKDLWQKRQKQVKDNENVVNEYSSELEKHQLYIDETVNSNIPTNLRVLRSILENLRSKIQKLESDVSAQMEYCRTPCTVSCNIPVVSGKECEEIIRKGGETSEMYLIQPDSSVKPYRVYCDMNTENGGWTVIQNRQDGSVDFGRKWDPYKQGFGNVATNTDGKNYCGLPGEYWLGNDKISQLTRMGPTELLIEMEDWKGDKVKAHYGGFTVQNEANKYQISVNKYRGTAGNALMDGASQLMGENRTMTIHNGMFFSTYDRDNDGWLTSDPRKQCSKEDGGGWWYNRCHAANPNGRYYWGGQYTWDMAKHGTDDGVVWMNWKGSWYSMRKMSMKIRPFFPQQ
# T3 sequence (P02679 27-453, chain 3 of 3): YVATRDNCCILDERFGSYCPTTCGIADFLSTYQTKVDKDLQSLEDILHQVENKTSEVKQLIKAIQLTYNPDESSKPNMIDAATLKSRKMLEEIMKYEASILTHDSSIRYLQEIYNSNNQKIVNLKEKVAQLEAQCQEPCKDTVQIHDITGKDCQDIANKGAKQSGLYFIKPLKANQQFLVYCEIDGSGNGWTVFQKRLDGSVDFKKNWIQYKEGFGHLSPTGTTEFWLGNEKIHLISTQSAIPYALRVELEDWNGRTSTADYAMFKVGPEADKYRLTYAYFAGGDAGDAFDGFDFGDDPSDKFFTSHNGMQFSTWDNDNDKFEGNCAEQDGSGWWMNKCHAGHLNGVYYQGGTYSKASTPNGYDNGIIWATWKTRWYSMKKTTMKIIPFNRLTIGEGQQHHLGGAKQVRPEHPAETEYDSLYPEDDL
binder,measurement,setting,value
B1,Kd,[1],2.89 nM
same,binding result,[2],no binding
same,binding result,fibrinogen [3],no binding
same,binding result,[4],no binding
B2,Kd,[5],19.8 nM
same,binding result,[6],no binding
same,binding result,fibrinogen [7],no binding
same,binding result,[8],no binding
B3,Kd,fibrinogen [9],4.4 nM
same,binding result,[10],no binding
same,binding result,[2],no binding
same,binding result,[4],no binding
B4,Kd,[11],2.3 nM
B5,Kd,[11],49.4 nM
